For data set [1], the system named is MAP kinase (ERK2). Nature of the data set: MAP kinase (ERK2) immunoprecipitation / MBP kinase assay in HBx-transfected Chang cells. The class given is cell-based, human. As for the experimental part:
(FIG. 2B) ERK2 was immunoprecipitated from equal amounts of cell lysates analyzed by in vitro phosphorylation of myelin basic protein (MBP) using [γ-^32P] ATP. […] Cells were stimulated with 100 μg/ml of insulin (Intergen) for 10 min.
To assay for MAP kinase activity, cells were lysed in freshly prepared lysis buffer (10 mM Tris HC1 pH 7.5, 1% Triton X-100, 0.5% NP-40, 1 mM EDTA, 1 mM EGTA, 1 mM Na3VO4, 50 mM NaF, 1 mM PMSF, 40 mM PPi, 10 μg/ml aprotinin, and 10 μg/ml leupeptin) and MAP kinase was immunoprecipitated using 1μg/ml anti-ERK2 antibodies from equal amounts of protein. After 4 washes with lysis buffer, and 2 with kinase buffer (20 mM Hepes pH 7.4, 10 mM MgCl2), the immunoprecipitates were incubated with kinase buffer including 0.5 mg/ml myelin basic protein (MBP, Sigma), 10 mM ATP and 5 μCi [γ-^32P]ATP for 30 minutes at 30° C. The reactions were stopped by the addition of 2× sample loading buffer (Sambrook et al. 1989, supra), resolved by 15% SDS-PAGE and visualized by autoradiography. Assays for activation of JNK MAP kinases were carried out exactly as described above, except that the immunoprecipitated JNK was incubated with 5 μg purified GST-c-Jun (Benn et al., 1996, supra) and 10 μCi [γ-^32P]ATP, and resolved by 10% SDS-PAGE.
To test whether HBx activation of the Src family of kinases is required for stimulation of Ras signaling by HBx, Chang cells were transfected at low density with plasmids expressing HBxo, HBx or HBx and Csk, serum-starved for 20 hours, 2% serum restored for 2 hours to permit protein synthesis, and activation of immunoprecipitated MAP kinase at the end of the Ras-MAP kinase cascade assayed by incubation with myelin basic protein (MBP) and [γ-^32P]ATP (FIG. 2). Expression of HBx induces a strong activation in the ability of MAP kinase to phosphorylate MBP that is abolished upon co-transfection of HBx with Csk. […]

Data set [2] relates to AP-1. Kind of data set: AP-1 electrophoretic mobility shift assay (EMSA), HBx-transfected Chang cells. It is filed as cell-based, human. The settings on record: cotransfection of increasing amounts of Csk plasmid. As for the experimental part: (FIG. 3A) Cell extracts were prepared for AP-1 EMSA as described (Benn et al., 1996, supra) using a ^32P-labeled dsDNA oligonucleotide probe containing one AP-1 binding site. Reactions were carried out using 3 μg of nuclear extract, labeled oligonuleotide and 1 μg of poly(dI-dC) for 30 min at 23° C. Protein-DNA complexes were resolved by electrophoresis on 4% polyacrylamide gels and visualized by PhosphorImage 5analysis. As a positive control for AP-1 stimulation, cells were treated with 20 μM TPA for 30 min.
Here it is shown that HBx activation of AP-1 DNA binding activity and AP-1 directed transcription, both involve an essential requirement for HBx activation of Src tyrosine kinases. Chang cells were transfected with plasmids expressing HBx or HBxo proteins, with or without cotransfection of Csk, serum starved and nuclear extracts prepared for electrophoretic mobility shift assay (EMSA) using equal amounts of nuclear extracts and a ^32P-labeled dsDNA probe containing one AP-1 binding site, as described (Benn et al., 1996 supra). Cotransfection of increasing amounts of the Csk expressing plasmid suppressed HBx induction of AP-1 DNA binding complexes in a titratable manner (FIG. 3A). […]
On the technique in general: A gel shift assay detects complexes by their altered migration in electrophoresis.

Data set [3] concerns AP-1 dependent transcription. Nature of the data set: AP-1 dependent luciferase reporter, HBx-transfected Chang cells. It is filed as cell-based, human. As to conditions: co-expression with Csk. On the procedure: (FIG. 3B) Cells were transfected as above but contained in addition 3 μg of plasmid pAP-1Luc, which encodes the luciferase reporter under the control of four AP-1 binding sites and a minimal TATA box promoter. Serum starved cells were harvested 18 h after transfection and the level of expression of the luciferase reporter assayed. Results are the average of three independent experiments.
Here it is shown that HBx activation of AP-1 DNA binding activity and AP-1 directed transcription, both involve an essential requirement for HBx activation of Src tyrosine kinases. Chang cells were transfected with plasmids expressing HBx or HBxo proteins, with or without cotransfection of Csk, serum starved and nuclear extracts prepared for electrophoretic mobility shift assay (EMSA) using equal amounts of nuclear extracts and a ^32P-labeled dsDNA probe containing one AP-1 binding site, as described (Benn et al., 1996 supra). Cotransfection of increasing amounts of the Csk expressing plasmid suppressed HBx induction of AP-1 DNA binding complexes in a titratable manner (FIG. 3A). Finally, cells were cotransfected with plasmids expressing HBx or HBxo and an AP-1 dependent luciferase reporter under the control of a minimal promoter, with and without a Csk expression plasmid (FIG. 3B).
On the technique in general: A reporter such as luciferase makes a cellular process visible.

The subject of data set [4] is N-Myc. Kind of data set: N-Myc immunoblot of nuclear extracts, HBx-transfected Chang cells. The class given is cell-based, human. The settings on record: co-expression with HBx, serum-starved 20 hours. As for the experimental part:
Chang cells were transfected with plasmids expressing HBxo, HBx, Csk, SrcK^−, FynK^−, and the dominant-negative Ras (RasN17). The Ras N17 mutant was initially shown to preferentially bind GDP in vitro and to inhibit cellular proliferation when stably expressed in NIH 3T3 cells (Feig et al., 1988, Moll. Cell Biol. 8:3235-3243). Transfected cells were serum-starved for 20 hours, nuclear extracts prepared, equal amounts of protein resolved by SDS-PAGE and immunoblotted with anti-N-Myc antibodies. Expression of transfected HBx elevates the amount of N-Myc protein 3-4 fold. […] The inability of dominant-negative Ras or Fyn proteins to block Src activation is consistent with the report by Barone and Courtneidge (1995, supra). Co-expression of HBx with the dominant-negative Ras had no effect on induction of N-Myc by HBx, and neither did the expression of dominant-negative Fyn protein. Whether other Src family members (e.g. Yes or Lyn) are involved in N-Myc induction by HBx was not tested in these experiments.
(In general: Immunoblotting shows a protein as a band on a membrane.)

The subject of data set [5] is MAP kinase (ERK2). Kind of data set: MAP kinase (ERK2) MBP kinase assay during WHV replication in Chang cells. The class given is cell-based, human. As to conditions: co-expression with wtWHV. As for the experimental part:
FIG. 6. Woodchuck Hepatitis B Virus (WHV) HBx protein (WHx) activates a Src-Ras signaling cascade during WHV replication in cultured cells. […] Eighteen hours post-transfection, cells were serum-starved in 0.5% CS for 20 hours, MAP kinase (ERK-2) was immunoprecipitated from equal amounts of cell lysates and pellets were subjected to an in vitro MBP kinase assay.
To assay for MAP kinase activity, cells were lysed in freshly prepared lysis buffer (10 mM Tris HC1 pH 7.5, 1% Triton X-100, 0.5% NP-40, 1 mM EDTA, 1 mM EGTA, 1 mM Na3VO4, 50 mM NaF, 1 mM PMSF, 40 mM PPi, 10 μg/ml aprotinin, and 10 μg/ml leupeptin) and MAP kinase was immunoprecipitated using 1μg/ml anti-ERK2 antibodies from equal amounts of protein. After 4 washes with lysis buffer, and 2 with kinase buffer (20 mM Hepes pH 7.4, 10 mM MgCl2), the immunoprecipitates were incubated with kinase buffer including 0.5 mg/ml myelin basic protein (MBP, Sigma), 10 mM ATP and 5 μCi [γ-^32P]ATP for 30 minutes at 30° C. […]
To determine whether WHx also requires activation of Src family kinases for stimulation of Ras signaling during ongoing viral replication, Chang cells were co-transfected with plasmids synthesizing wtWHV and dominant-negative Ras (RasDN), dominant-negative Src (SrcK^−), or Csk proteins, and activation of MAP kinase was measured. […]

In data set [6] the test system is WHV. Kind of data set: WHV replication: Southern blot of core-associated viral DNA, Chang cells. It is filed as cell-based, Woodchuck Hepatitis B Virus. The settings on record: co-expression with wtWHV, 3 days post-transfection. As for the experimental part:
FIG. 7. WHx requires activation of Src family kinase for WHV replication. Chang cells were co-transfected with 20 μg PCWHV, wtWHV, wtWHV and RasDN (dominant-negative) (10 μg), or wtWHV and Csk (10 μg). Three days post-transfection viral core-associated DNA was isolated, purified, and subjected to Southern blot analysis using a full-length ^32P-labeled WHV genomic probe.
Chang cells were transfected with infectious WHV clones, (2×10 cm plates) were washed twice with PBS and lysed in 500 μl lysis buffer/10 cm plate (20 mM Tris HCl pH 7.5, 1 mM EDTA, 100 mM NaCl, 0.5% NP-40) for 10-15 minutes. Lysates were centrifuged at 12,000× g for 30 minutes, MgCl2 was adjusted to 10 mM, DNAseI (Boehringer Mannheim) was added to 20 U/ml and the lysates were incubated at 37° C. for 2 hours. Following DNAse I treatment, the lysates were centrifuged for 5 min at 12,000× g, layered onto a 20% sucrose cushion (300 μl of 20% sucrose in 20 mM Tris HCl pH 8.0, 150 mM NaCl) and centrifuged for 178,000× g for 3 hours at 20° C. […]
Chang cells were co-transfected with plasmids encoding either wtWHV, PCWHV, wtWHV and RasDN, or wtWHV and Csk, intracellular core-associated viral DNA was isolated 3 days post-transfection, and purified viral DNA analyzed by Southern blot hybridization as described above (FIG. 7).

Data set [7] has as its system WHV. Nature of the data set: WHV RNA: Northern blot analysis, Chang cells. The class given is cell-based, Woodchuck Hepatitis B Virus. As to conditions: co-expression with wtWHV. As for the experimental part:
Chang cells were washed twice with PBS and total RNA prepared according to the manufacturer's instructions (RNeasy mini kit; Qiagen). 15 μg total RNA per sample were resolved through a 1.2% formaldehyde-agarose gel (Sambrook et al., 1989, supra), transferred to Duralon UV membrane, and pre-hybridized in Quick-Hyb solution (Stratagene) at 65° C. Hybridization to 32P-labeled full length WHV probe was carried out in the same solution at 65° C., washed as described above, and autoradiographed for 1 day.
(§1) To assess whether HBx activation of a Src signaling cascade plays an essential role in transcriptional upregulation of the viral mRNAs, Chang cells were co-transfected with wtWHV and either RasDN or Csk plasmids, and the RNA visualized by Northern analysis (FIG. 7, lanes 2 and 3). […] To ensure that the decrease in synthesis of WHV RNA by Csk was not the unforseen consequence of Csk inhibition of the CMV promoter (which drives synthesis of the WHV pregenomic RNA), control experiments assessing the effect of Csk on a CMV-βgal reporter were carried out. […] However, the WHx-induced increase in mRNA abundance (˜3-5 fold) is much less then the HBx-induced increase in viral DNA synthesis (˜20-30 fold). […] The stimulation of Src signaling cascades by HBx must therefore promote WHV replication independent of the effect of WHx on viral transcription.

Data set [8] deals with CMV promoter. Kind of data set: CMV-βgal reporter control (β-galactosidase activity). The class given is cell-based. The settings on record: co-expression of Csk with CMV-βgal.
Description: as §1

B1: Csk: protein tyrosine kinase C-terminal Src kinase, physiologic inhibitor of Src, expressed from plasmid (protein, UniProt P41240 2-450, looked up)
Tyrosine-protein kinase CSK: SAIQAAWPSGTECIAKYNFHGTAEQDLPFCKGDVLTIVAVTKDPNWYKAKNKVGREGIIPANYVQKREGVKAGTKLSLMPWFHGKITREQAERLLYPPETGLFLVRESTNYPGDYTLCVSCDGKVEHYRIMYHASKLSIDEEVYFENLMQLVEHYTSDADGLCTRLIKPKVMEGTVAAQDEFYRSGWALNMKELKLLQTIGKGEFGDVMLGDYRGNKVAVKCIKNDATAQAFLAEASVMTQLRHSNLVQLLGVIVEEKGGLYIVTEYMAKGSLVDYLRSRGRSVLGGDCLLKFSLDVCEAMEYLEGNNFVHRDLAARNVLVSEDNVAKVSDFGLTKEASSTQDTGKLPVKWTAPEALREKKFSTKSDVWSFGILLWEIYSFGRVPYPRIPLKDVVPRVEKGYKMDAPDGCPPAVYEVMKNCWHLDAAMRPSFLQLREQLEHIKTHELHL
Turning to B1, the “HBx activation of ERK2” value in data set [1] (co-expression with HBx, serum-starved in 0.5% CS for 24 hours) is reported as “impaired”. For the same molecule, the “HBx activation of MAP kinase (phosphorylation of MBP)” value in data set [1] (co-transfection of HBx with Csk, serum-starved 20 hours, 2% serum 2 hours) is given as “abolished”. Moreover, the “activation of MAP kinase by insulin” value in data set [1] (overexpression of Csk) is “only slightly impaired”. Also, the “HBx induction of AP-1 DNA binding complexes” value in data set [2] was “suppressed”. For the same molecule, in data set [3], the “HBx induced activation of AP-1 dependent transcription” value is “fully blocked”. Moreover, the “increase in N-Myc protein by HBx” value in data set [4] is “impaired”. Besides, the “downstream activation of MAP kinase by wtWHV” value in data set [5] is recorded as “efficiently inhibited”. The “WHV replication (core-associated viral DNA)” value in data set [6] is reported as “completely abolished”. For the same molecule, the “reduction of WHV RNA level” value in data set [7] is given as 3-5 fold. Moreover, the “expression of βgal protein from CMV-βgal (β-galactosidase activity)” value in data set [8] was “did not significantly alter”.
